Data set [1] deals with T1, FcγRIIIa (human, UniProt P08637). Put plainly: ELISA, immune complexes.
In data set [2] the target is T2, FcγRIIIb (human, UniProt O75015).
T2 chain: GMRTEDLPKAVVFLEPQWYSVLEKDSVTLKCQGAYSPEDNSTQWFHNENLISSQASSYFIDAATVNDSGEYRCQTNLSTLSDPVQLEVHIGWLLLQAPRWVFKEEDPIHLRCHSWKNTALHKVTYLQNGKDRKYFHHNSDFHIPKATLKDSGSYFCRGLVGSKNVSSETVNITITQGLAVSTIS
Put plainly: SPR, pH 7.4.

Data set [3] concerns the molecule itself. Put plainly: SPR, pH 7.4, self-association, GMP batch.
For data set [4], the target named is T3, FcγRI (human, UniProt P12314).
T3 chain: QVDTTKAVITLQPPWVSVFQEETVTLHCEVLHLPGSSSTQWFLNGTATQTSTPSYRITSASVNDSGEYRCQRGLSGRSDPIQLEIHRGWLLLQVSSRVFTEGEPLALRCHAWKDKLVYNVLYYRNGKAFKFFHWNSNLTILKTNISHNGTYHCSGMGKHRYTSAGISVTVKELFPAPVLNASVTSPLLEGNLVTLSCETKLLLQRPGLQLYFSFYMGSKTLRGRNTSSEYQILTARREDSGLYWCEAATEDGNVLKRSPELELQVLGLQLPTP
Put plainly: ELISA, immune complexes.

In another data set the target is T4, FcγRIIb/c (human, UniProt P31994).
T4 chain: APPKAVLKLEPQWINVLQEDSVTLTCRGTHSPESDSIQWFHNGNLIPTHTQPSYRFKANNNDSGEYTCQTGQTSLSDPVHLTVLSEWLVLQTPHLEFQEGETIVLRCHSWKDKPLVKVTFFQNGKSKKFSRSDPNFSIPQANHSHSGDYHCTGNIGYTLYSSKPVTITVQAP
Put plainly: SPR, pH 7.4.

For data set [5], the target named is T1, FcγRIIIa. Put plainly: SPR, pH 7.4.
Data set [6] concerns the molecule itself. Put plainly: SPR, pH 7.4, self-association, engineering batch.
For a further data set, the target named is T5, FcγRIIa (human, UniProt P12318).
T5 chain: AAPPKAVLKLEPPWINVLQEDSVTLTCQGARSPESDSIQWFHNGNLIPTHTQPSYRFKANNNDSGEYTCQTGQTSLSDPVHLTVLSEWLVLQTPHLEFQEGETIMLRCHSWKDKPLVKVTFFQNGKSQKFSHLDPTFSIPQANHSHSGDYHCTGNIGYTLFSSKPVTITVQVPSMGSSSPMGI
Put plainly: SPR, pH 7.4.

The target of data set [7] is T2, FcγRIIIb. Put plainly: ELISA, immune complexes.
The target in data set [8] is T3, FcγRI. Put plainly: SPR, pH 7.4.

This passage reports binding result and Kd results from patent US20160108115 (published 2016).

T1 sequence (P08637 17-208): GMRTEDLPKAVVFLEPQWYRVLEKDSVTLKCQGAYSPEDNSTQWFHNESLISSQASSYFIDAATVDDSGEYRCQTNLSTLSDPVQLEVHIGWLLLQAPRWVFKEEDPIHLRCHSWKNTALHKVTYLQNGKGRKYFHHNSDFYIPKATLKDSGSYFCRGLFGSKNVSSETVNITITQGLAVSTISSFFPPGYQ

B1: BNJ441 (full length) (antibody)
chain 1: QVQLVQSGAEVKKPGASVKVSCKASGHIFSNYWIQWVRQAPGQGLEWMGEILPGSGHTEYTENFKDRVTMTRDTSTSTVYMELSSLRSEDTAVYYCARYFFGSSPNWYFDVWGQGTLVTVSSASTKGPSVFPLAPCSRSTSESTAALGCLVKDYFPEPVTVSWNSGALTSGVHTFPAVLQSSGLYSLSSVVTVPSSNFGTQTYTCNVDHKPSNTKVDKTVERKCCVECPPCPAPPVAGPSVFLFPPKPKDTLMISRTPEVTCVVVDVSQEDPEVQFNWYVDGVEVHNAKTKPREEQFNSTYRVVSVLTVLHQDWLNGKEYKCKVSNKGLPSSIEKTISKAKGQPREPQVYTLPPSQEEMTKNQVSLTCLVKGFYPSDIAVEWESNGQPENNYKTTPPVLDSDGSFFLYSRLTVDKSRWQEGNVFSCSVLHEALHSHYTQKSLSLSLGK
chain 2: DIQMTQSPSSLSASVGDRVTITCGASENIYGALNWYQQKPGKAPKLLIYGATNLADGVPSRFSGSGSGTDFTLTISSLQPEDFATYYCQNVLNTPLTFGQGTKVEIKRTVAAPSVFIFPPSDEQLKSGTASVVCLLNNFYPREAKVQWKVDNALQSGNSQESVTEQDSKDSTYSLSSTLTLSKADYEKHKVYACEVTHQGLSSPVTKSFNRGEC
As to B1, the binding result with FcγRIIIa [1], with FcγRI [4] and with FcγRIIIb [7] was “no binding” in each case. Further, the dissociation constant (Kd) came to 3.33 µM in the data set with FcγRIIIb [2]; 270 µM in data set [3]; 8.09 µM in the data set with FcγRIIb/c; 7.23 µM in the data set with FcγRIIIa [5]; 7100 µM in data set [6]; 2.31 µM in the data set with FcγRIIa. The same molecule came in with a Kd in the data set with FcγRI [8] of 3.75 µM.
